Test results reported in patent publication US20230086603A1 (BOLT BIOTHERAPEUTICS, published 2023).
Where a chain is given by its changes, count along the chain named. Values belong to the binder of their own block, whether it stands above or below them.

Biological target: T1, human PD-L1 (hPD-L1) (human, UniProt Q9NZQ7 19-290)
T1 construct: Endogenous hPD-L1 on JIMT1 (JIMT-1) cells; also called programmed death-ligand 1; CD274
Assay: flow cytometry on JIMT-1 cells expressing endogenous human PD-L1; anti-human IgG Fc secondary; geometric MFI
Procedure: Binding of the binding agents of an embodiment of the invention to human PD-L1 (hPD-L1) on cell surfaces was assessed by incubating the binding agents with JIMT1 cells that express endogenous hPD-L1. Briefly, the binding agents were diluted serially in FACS buffer (PBS+1% FBS+5 mM EDTA, pH 7.4) at 4° C. Diluted binding agents were applied to JIMT1 cells (˜1×10⁵-2×10⁵ per well) and incubated at 4° C. […] After unbound secondary antibody was washed out, cells were resuspended in FACS buffer plus 2% formaldehyde and analyzed by flow cytometry. The intensity of fluorescence, expressed as geometric mean fluorescence intensity, was used to determine anti-PDL1 binding agent binding to hPD-L1 on cell surface.

T1 sequence (Q9NZQ7 19-290 limits assumed): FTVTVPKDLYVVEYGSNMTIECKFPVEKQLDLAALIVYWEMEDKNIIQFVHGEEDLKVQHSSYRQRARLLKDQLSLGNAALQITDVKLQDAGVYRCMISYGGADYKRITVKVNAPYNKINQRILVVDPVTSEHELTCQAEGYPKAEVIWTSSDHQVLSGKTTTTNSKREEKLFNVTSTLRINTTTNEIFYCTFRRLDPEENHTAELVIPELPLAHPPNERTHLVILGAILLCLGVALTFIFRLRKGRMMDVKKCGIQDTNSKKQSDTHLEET

binding result: binds
B13: 19 (antibody, V domains shown)
VH: QVQLVQSGAEVKKPGASVKVSCKASGYTFTSHYMHWVRQAPGQGLEWMGWMNPNSGNTGYAQKFQGRVTMTRDTSTSTVYMELSSLRSEDTAVYYCARERFLGGMDVWGQGTTVTVSS
VL: DIQMTQSPSSLSASVGDRVTITCRASQSITGWLAWYQQKPGKAPKLLIYAASSLQSGVPSRFSGSGSGTDFTLTISSLQPEDFATYYCQQSYSTPYTFGQGTKVEIK

binding result: binds
B14: 23 (antibody, V domains shown)
VH: QVQLVQSGAEVKKPGASVKVSCKASGYTFTGYYMHWVRQAPGQGLEWMGWISPNSGVTDFTQKFQGRVTMTRDTSTSTVYMELSSLRSEDTAVYYCARESWSGEFDYWGQGTLVTVSS
VL: B13 VL with G31T, W32Y, A34N, S56G

binding result: binds
B15: 32 (antibody, V domains shown)
VH: B13 VH with H32Y, N57H, R100D, L102Y, G104D, M105F, V107Y, T113L
VL: B13 VL with S28G, T30S, G31R, W32Y, S53T, Y96L

binding result: binds
B16: 30 (antibody, V domains shown)
VH: B13 VH with T28P, T30S, S31T, H32Y, N54H, G56A, N57D, Q62E, R100V, L102E
VL: B13 VL with I29V, T30G, G31S, L33V, A50P, S53T, Y96L, Q100G

binding result: binds
B17: 25 (antibody, V domains shown)
VH: QVQLVQSGAEVKKPGASVKVSCKASGYTFTGYYMHWVRQAPGQGLEWMGWMNPNSDIAGYAQKFQGRVTMTRDTSTSTVYMELSSLRSEDTAVYYCARDAWELLAFDIWGQGTLVTVSS
VL: B13 VL with I29V, T30S, G31T, S53N, Q55E, V104L

binding result: binds
B18: 22 (antibody, V domains shown)
VH: QVQLVQSGAEVKKPGASVKVSCKASGYTFTGYTLHWVRQAPGQGLEWMGWIDPNSGVTSSAQKFQGRVTMTRDTSTSTVYMELSSLRSEDTAVYYCARESEVMMAYFQHWGQGTLVTVSS
VL: B13 VL with R24Q, S28D, T30S, G31S, W32Y, A34N, S56T, V104L

binding result: binds
B19: 67 (antibody, V domains shown)
VH: QVQLVQSGAEVKKPGASVKVSCKASGYTFSTHYMHWVRQAPGQGLEWMGWINPNSGHAGSAQKFQGRVTMTRDTSTSTVYMELSSLRSEDTAVYYCARESIAVAGYDYWGQGTLVTVSS
VL: B13 VL with T30S, G31S, S53T, S56R, V104L

binding result: binds
B20: 18 (antibody, V domains shown)
VH: QVQLVQSGAEVKKPGASVKVSCKASGYTFTSYYMHWVRQAPGQGLEWVGWMTPSTGNAGYAQKFQGRVTMTRDTSTSTVYMELSSLRSEDTAVYYCAREEWLGHFQHWGQGTLVTVSS
VL: B13 VL with S28G, T30S, G31N, W32G, A34S, S53T, Y92H, Y96L, Q100G

binding result: binds
B21: 4 (antibody, V domains shown)
VH: QVQLVQSGAEVKKPGASVKVSCKASGYTFTSHHMHWVRQAPGQGLEWMGWVSPSHGLTGYAQKFQGRVTMTRDTSTSTVYMELSSLRSEDTAVYYCARDNWNVHDAFDIWGQGTLVTVSS
VL: B13 VL with S28G, T30S, G31S, W32Y, A50G, S53N, Y96L, Q100G

binding result: binds
B22: 35 (antibody, V domains shown)
VH: QVQLVQSGAEVKKPGASVKVSCKASGYPFSSYYMHWVRQAPGQGLEWMGMINPSGGSTSYAQKFQGRVTMTRDTSTSTVYMELSSLRSEDTAVYYCARDIFPTMIAGGGFDLWGRGTLVTVSS
VL: B13 VL with T30S, G31S, A50D, S53N, Q55E, S56T, Y96P

binding result: binds
B23: 33 (antibody, V domains shown)
VH: QVQLVQSGAEVKKPGASVKVSCKASGYTFTRHFIHWVRQAPGQGLEWMGWIDPNSGVTSSAQKFQGRVTMTRDTSTSTVYMELSSLRSEDTAVYYCARELSRWGFDYWGPGTMVTVSS
VL: EIVMTQSPATLSVSPGERATLSCRASQTVSSNYLAWYQQKPGQAPRLLIYGASTRASGIPARFSGSGSGTEFTLTISSLQSEDFAVYYCQQYYTTPLTFGGGTKVEIK

binding result: binds
B24: 37 (antibody, V domains shown)
VH: QVQLVQSGAEVKKPGASVKVSCKASGYTFTSYGINWVRQAPGQGLEWMGWMNPNSGNTGYAQKFQGRVTMTRDTSTSTVYMELSSLRSEDTAVYYCARGSFPLVFTIFGVGDVWGQGTMVTVSS
VL: DIQMTQSPSSLSASVGDRVTITCRSSQGIRNDLSWYQQKPGKAPKLLIYLASNSHSGVPSRFSGSGSGTDFTLTISSLQPEDFATYYCLQHNSYPLTFGGGTKVEIK

Continued, binder first:

B1: 66 (antibody, V domains shown)
VH: QVQLVQSGAEVKKPGASVKVSCKASGYTFSSYYMHWVRQAPGQGLEWMGWITTNSGITGYAQKFQGRVTMTRDTSTSTVYMELSSLRSEDTAVYYCAREGYSSGLDYWGQGTLVTVSS
VL: not shown
binding result: binds

B2: 24 (antibody, V domains shown)
VH: B13 VH with Y27D, S31N, N57H, K63R, R100A, F101V, L102A, G104P
VL: not shown
binding result: binds

B3: 28 (antibody, V domains shown)
VH: B13 VH with H32Y, L102A, V107A
VL: EIVMTQSPATLSVSPGERATLSCRASQSLSSSSLAWYQQKPGQAPRLLIYGASTRATGIPARFSGSGSGTEFTLTISSLQSEDFAVYYCQQYGSSPFTFGPGTKVDIK
binding result: binds

B4: 29 (antibody, V domains shown)
VH: QVQLVQSGAEVKKPGASVKVSCKASGYTFSNSYMHWVRQAPGQGLEWMGWMDPSSGYTGSAHKFQGRVTMTRDTSTSTVYMELSSLRSEDTAVYYCAEDSGGAFDIWGQGTMVTVSS
VL: B13 VL with Q27E, S28H, T30A, G31N, A50G, A51V, Q55E, V104L
binding result: binds

B5: 34 (antibody, V domains shown)
VH: QVQLVQSGAEVKKPGASVKVSCKASGYTFTRHLLHWVRQAPGQGLEWMGWISPQHGVRNYAHKFQGRVTMTRDTSTSTVYMELSSLRSEDTAVYYCARESVEGYFDLWGRGTLVTVSS
VL: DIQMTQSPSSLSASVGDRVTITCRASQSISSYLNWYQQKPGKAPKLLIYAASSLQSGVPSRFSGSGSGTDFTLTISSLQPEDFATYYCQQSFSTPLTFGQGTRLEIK
binding result: binds

B6: 20 (antibody, V domains shown)
VH: B20 VH with S31D, V48M, T52H, S54N, T55S, N57H, A58T, Y80N
VL: B13 VL with T30S, G31S, A50D, S52T, S53H, Q55E, S56T, Y96I, K103R, V104L
binding result: binds

B7: 31 (antibody, V domains shown)
VH: B20 VH with V48M, M51L, N57H, E100G, W101Y, L102G, H104N, F105Y, Q106G, H107N
VL: B13 VL with T30S, G31P, A50D, S53N, Q55E, S56T, S91T, Y96I, K103R, V104L
binding result: binds

B8: 26 (antibody, V domains shown)
VH: QVQLAQSGAEVKKPGASVKVSCKASGYTFTNHYMHWVRQAPGQGLEWMGWMNPNSGNTGYAQKFQGRVTMTRDTSTSTVYMELSSLRSEDTAVYYCARDRWDGDYYSAWGQGTLVTVSS
VL: B13 VL with T30S, G31N, A50D, A51V, S53H, Q55E, Y96F, Q100P, E105D
binding result: binds

B9: 69 (antibody, V domains shown)
VH: B8 VH with A5V, N31S, H32Y, M51I, R100D, D102G, Y105W, Y106F, S107D, A108Y
VL: DIQMTQSPSSLSASVGDRVTITCQASQDISNHLNWYQQKPGKAPKLLIYGASNLQRGVPSRFSGSGSGTDFTLTISSLQPEDFATYYCQQSYSTPITFGQGTRLEIK
binding result: binds

B10: 1 (antibody, V domains shown)
VH: QVQLVQSGAEVKKPGASVKVSCKASGGTFSSYAISWVRQAPGQGLEWMGVINPSAGSTDYAQKFQGRVTMTRDTSTSTVYMELSSLRSEDTAVYYCARDLYPYVVVVAAGSYGMDVWGQGTLVTVSS
VL: B13 VL with S28G, T30D, G31S, W32Y, Y96I, Q100G
binding result: binds

B11: 68 (antibody, V domains shown)
VH: QVQLVQSGAEVKKPGASVKVSCKASGYTFTGYYMHWVRQAPGQGLEWMGWINPNSGTTGYAQNFQGRVTMTRDTSTSTVYMELSSLRSEDTAVYYCAREGFGPNAFDIWGQGTTVTVSS
VL: B13 VL with T30S, G31S, S53N, S91Y
binding result: binds

B12: 27 (antibody, V domains shown)
VH: QVQLVQSGAEVKKPGASVKVSCKASGYTFTNYYIHWVRQAPGQGLEWMGWMSPNGGNTGYAQKFQGRVTMTRDTSTSTVYMELSSLRSEDTAVYYCARESWELTGFDYWGQGTLVTVSS
VL: B13 VL with R24Q, S28G, T30S, G31N, W32Y, A50D, Y96L, Q100G
binding result: binds
